Laboratory results: the supplement of paper PMC10219994
± gives the standard deviation of the averaged measurements.

B1: library; a variant is named by its letters at N, in order (parent)
chain: GAGACCGCAACTGAAAAGTTGTGGNNNNNATAGTGAGTCGCTGCCTGCAAAGACACAACT

Variants of: B1
Experiment: ligation selection enrichment (abundance after / before one-round selection) (fold); higher = more template-directed ligation activity
Conditions: with T7Psub CACGGAUGCUAAUACGACUCACUAUA; MgCl2 25 mM; 42 °C; 4 h; pH 8.5
Experimental: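 Lib-N5 ligase ribozyme library: five randomized core nucleotides (including the GGA motif of N8-1) within the fixed N8-1 ribozyme flanks, transcribed by T7 RNA polymerase with a 5'-triphosphate. The library (0.75 uM) was reacted with substrate T7Psub (6 uM) in 50 mM EPPS pH 8.5 with 25 mM MgCl2 at 42 C for 4 h. Ligated products were PAGE-purified, reverse transcribed and MiSeq sequenced; enrichment = abundance after selection / abundance before selection, with two independent replicates. The full transcript is built from the printed template flanks.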

GAGACCGCAACTGAAAAGTTGTGGTATACATAGTGAGTCGCTGCCTGCAAAGACACAACT and GAGACCGCAACTGAAAAGTTGTGGTATAAATAGTGAGTCGCTGCCTGCAAAGACACAACT are within error of each other in ligation selection enrichment: 0.22 ± 0.0018 for the first, 0.182 ± 0.077 for the second.

Going from GAGACCGCAACTGAAAAGTTGTGGGAGGTATAGTGAGTCGCTGCCTGCAAAGACACAACT to GAGACCGCAACTGAAAAGTTGTGGGAGGGATAGTGAGTCGCTGCCTGCAAAGACACAACT, the ligation selection enrichment rises from 0.143 ± 0.025 to 0.345 ± 0.011.

Going from GAGACCGCAACTGAAAAGTTGTGGGAGGAATAGTGAGTCGCTGCCTGCAAAGACACAACT to GAGACCGCAACTGAAAAGTTGTGGGAGGCATAGTGAGTCGCTGCCTGCAAAGACACAACT, the ligation selection enrichment falls from 0.501 ± 0.11 to 0.17 ± 0.017.

Going from GAGACCGCAACTGAAAAGTTGTGGTAGGCATAGTGAGTCGCTGCCTGCAAAGACACAACT to GAGACCGCAACTGAAAAGTTGTGGTAGGAATAGTGAGTCGCTGCCTGCAAAGACACAACT, the ligation selection enrichment rises from 0.218 ± 0.0035 to 0.998 ± 0.19.

First: GAGACCGCAACTGAAAAGTTGTGGTAGGGATAGTGAGTCGCTGCCTGCAAAGACACAACT
Second: GAGACCGCAACTGAAAAGTTGTGGTAGGTATAGTGAGTCGCTGCCTGCAAAGACACAACT
The ligation selection enrichment of the first is higher: 0.637 ± 0.12 for the first, 0.115 ± 0.046 for the second.

Compared with GAGACCGCAACTGAAAAGTTGTGGGATCCATAGTGAGTCGCTGCCTGCAAAGACACAACT, GAGACCGCAACTGAAAAGTTGTGGGATCAATAGTGAGTCGCTGCCTGCAAAGACACAACT is higher in ligation selection enrichment: 0.276 ± 0.057 for the first, 0.464 ± 0.032 for the second.

First: GAGACCGCAACTGAAAAGTTGTGGGATCGATAGTGAGTCGCTGCCTGCAAAGACACAACT
Second: GAGACCGCAACTGAAAAGTTGTGGCATCGATAGTGAGTCGCTGCCTGCAAAGACACAACT
The ligation selection enrichment of the first is lower: 0.78 ± 0.097 for the first, 1.33 ± 0.14 for the second.

First: GAGACCGCAACTGAAAAGTTGTGGCATCAATAGTGAGTCGCTGCCTGCAAAGACACAACT
Second: GAGACCGCAACTGAAAAGTTGTGGCATCTATAGTGAGTCGCTGCCTGCAAAGACACAACT
The ligation selection enrichment of the first is lower: 0.288 ± 0.025 for the first, 0.541 ± 0.19 for the second.

Going from GAGACCGCAACTGAAAAGTTGTGGCATCCATAGTGAGTCGCTGCCTGCAAAGACACAACT to GAGACCGCAACTGAAAAGTTGTGGTATCAATAGTGAGTCGCTGCCTGCAAAGACACAACT, the ligation selection enrichment rises from 0.247 ± 0.012 to 0.404 ± 0.031.

GAGACCGCAACTGAAAAGTTGTGGTATCCATAGTGAGTCGCTGCCTGCAAAGACACAACT and GAGACCGCAACTGAAAAGTTGTGGTATCTATAGTGAGTCGCTGCCTGCAAAGACACAACT are within error of each other in ligation selection enrichment: 0.323 ± 0.051 for the first, 0.379 ± 0.13 for the second.

First: GAGACCGCAACTGAAAAGTTGTGGTATCGATAGTGAGTCGCTGCCTGCAAAGACACAACT
Second: GAGACCGCAACTGAAAAGTTGTGGTAGATATAGTGAGTCGCTGCCTGCAAAGACACAACT
The ligation selection enrichment of the first is lower: 0.999 ± 0.23 for the first, 15.6 ± 3.6 for the second.

Going from GAGACCGCAACTGAAAAGTTGTGGTAGAGATAGTGAGTCGCTGCCTGCAAAGACACAACT to GAGACCGCAACTGAAAAGTTGTGGCAGCAATAGTGAGTCGCTGCCTGCAAAGACACAACT, the ligation selection enrichment falls from 0.755 ± 0.058 to 0.206 ± 0.024.

GAGACCGCAACTGAAAAGTTGTGGCAGCTATAGTGAGTCGCTGCCTGCAAAGACACAACT and GAGACCGCAACTGAAAAGTTGTGGCAGCGATAGTGAGTCGCTGCCTGCAAAGACACAACT are within error of each other in ligation selection enrichment: 0.542 ± 0.24 for the first, 0.535 ± 0.21 for the second.

Going from GAGACCGCAACTGAAAAGTTGTGGCAGCCATAGTGAGTCGCTGCCTGCAAAGACACAACT to GAGACCGCAACTGAAAAGTTGTGGGAGAGATAGTGAGTCGCTGCCTGCAAAGACACAACT, the ligation selection enrichment rises from 0.14 ± 0.0077 to 0.663 ± 0.061.

First: GAGACCGCAACTGAAAAGTTGTGGGAGATATAGTGAGTCGCTGCCTGCAAAGACACAACT
Second: GAGACCGCAACTGAAAAGTTGTGGGAGCCATAGTGAGTCGCTGCCTGCAAAGACACAACT
The ligation selection enrichment of the first is higher: 11.7 ± 2.6 for the first, 0.172 ± 0.0044 for the second.

Going from GAGACCGCAACTGAAAAGTTGTGGGAGCGATAGTGAGTCGCTGCCTGCAAAGACACAACT to GAGACCGCAACTGAAAAGTTGTGGGAGCAATAGTGAGTCGCTGCCTGCAAAGACACAACT, the ligation selection enrichment falls from 0.68 ± 0.023 to 0.241 ± 0.082.

Going from GAGACCGCAACTGAAAAGTTGTGGGAGCTATAGTGAGTCGCTGCCTGCAAAGACACAACT to GAGACCGCAACTGAAAAGTTGTGGCATAAATAGTGAGTCGCTGCCTGCAAAGACACAACT, the ligation selection enrichment falls from 0.597 ± 0.27 to 0.159 ± 0.023.

Compared with GAGACCGCAACTGAAAAGTTGTGGCATAGATAGTGAGTCGCTGCCTGCAAAGACACAACT, GAGACCGCAACTGAAAAGTTGTGGCATATATAGTGAGTCGCTGCCTGCAAAGACACAACT is higher in ligation selection enrichment: 0.237 ± 0.014 for the first, 1.2 ± 0.084 for the second.

Compared with GAGACCGCAACTGAAAAGTTGTGGCATACATAGTGAGTCGCTGCCTGCAAAGACACAACT, GAGACCGCAACTGAAAAGTTGTGGCAGTTATAGTGAGTCGCTGCCTGCAAAGACACAACT is higher in ligation selection enrichment: 0.183 ± 0.029 for the first, 0.238 ± 0.0081 for the second.

First: GAGACCGCAACTGAAAAGTTGTGGCAGTAATAGTGAGTCGCTGCCTGCAAAGACACAACT
Second: GAGACCGCAACTGAAAAGTTGTGGCAGTGATAGTGAGTCGCTGCCTGCAAAGACACAACT
The ligation selection enrichment of the first is lower: 0.14 ± 0.0029 for the first, 0.185 ± 0.004 for the second.

Compared with GAGACCGCAACTGAAAAGTTGTGGCAGTCATAGTGAGTCGCTGCCTGCAAAGACACAACT, GAGACCGCAACTGAAAAGTTGTGGCAGGAATAGTGAGTCGCTGCCTGCAAAGACACAACT is higher in ligation selection enrichment: 0.125 ± 0.019 for the first, 0.231 ± 0.013 for the second.

Compared with GAGACCGCAACTGAAAAGTTGTGGCAGGGATAGTGAGTCGCTGCCTGCAAAGACACAACT, GAGACCGCAACTGAAAAGTTGTGGCAGGTATAGTGAGTCGCTGCCTGCAAAGACACAACT is lower in ligation selection enrichment: 0.186 ± 0.021 for the first, 0.108 ± 0.023 for the second.

GAGACCGCAACTGAAAAGTTGTGGCAGGCATAGTGAGTCGCTGCCTGCAAAGACACAACT showed a ligation selection enrichment of 0.244 ± 0.12.
